How the values were obtained:
[1] = target: T1, GST-FAP-1 PDZ5 binding to ephrin B1 (Homo sapiens, UniProt Q12923); experiment: Peptide competition of GST-FAP-1 PDZ5 binding to ephrin B1 (GST mixing, immunoblot); settings: peptide 100 μM, lysates of ephrin B1-transfected Cos-1 cells
T1 construct: made in house; ephrin B1: transiently transfected Cos-1 cells (lysate)
T1 sequence (Q12923 1788-1868 limits assumed): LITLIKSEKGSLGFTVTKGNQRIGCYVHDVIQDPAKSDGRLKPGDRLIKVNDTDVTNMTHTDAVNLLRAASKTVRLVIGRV
Description: FIGS. 4A and 4B. FAP-1 PDZ5 and syntenin binding to ephrin B1 can be blocked by addition of peptides corresponding to the C-terminal sequence of B ephrins. Peptides of the indicated sequence were included at a concentration of 100 μM in incubations of GST fusion proteins with lysates of Cos-1 cells transfected with ephrin B1. Associated proteins were separated on a 10% polyacrylamide/SDS gel and analyzed by immunoblotting with antibodies against ephrin B1. FIG. 4A, Competition of FAP-1 PDZ5 binding to ephrin B1 using the indicated peptides. A peptide of sequence DHQpYpYND was added at a concentration of 100 μM as a negative control. Immunoprecipitation of ephrin B1 was included as a positive control. FIG. 4B, Peptide competition of the binding of full-length syntenin to ephrin B1.
Cos-1 cells were maintained in DMEM supplemented with 10% fetal bovine serum (FBS). Transient transfections were performed using Lipofectin reagent and Opti-MEM medium (Life Technologies Inc.) as outlined by the manufacturer. To reduce phosphorylation of ephrin B1 by binding to endogenously expressed EphB receptors or by stimulation with serum growth factors, transfected cells were transferred from 10 cm to 15 cm plates 24 h after transfection and serum starved in DMEM 0.5% FBS 12 h prior to cell lysis. […]

GRIP PDZ6 = target: T2, GRIP PDZ6 (Mus musculus, UniProt Q925T6); experiment: Fluorescence polarization binding of fluorescent peptide to GST fusion of GRIP PDZ6
T2 construct: separate GST fusions of GRIP PDZ6 and GRIP PDZ7; made in house
T2 sequence (Q925T6 672-754 limits assumed): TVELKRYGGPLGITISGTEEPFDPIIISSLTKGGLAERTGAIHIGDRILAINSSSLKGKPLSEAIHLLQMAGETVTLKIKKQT
Description: (§1) All fluorescence polarization measurements were conducted at 22° C.

GRIP PDZ7 = target: T3, GRIP PDZ7 (Mus musculus, UniProt Q925T6); experiment: Fluorescence polarization binding of fluorescent peptide to GST fusion of GRIP PDZ7
T3 construct: separate GST fusions of GRIP PDZ6 and GRIP PDZ7; made in house
T3 sequence (Q925T6 1003-1085 limits assumed): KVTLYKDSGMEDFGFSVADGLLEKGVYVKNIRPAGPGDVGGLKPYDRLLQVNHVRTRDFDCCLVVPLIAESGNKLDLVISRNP
Description: as §1

Substance | blocking of GST-FAP-1 PDZ5 binding to ephrin B1 [1] | interaction with GST fusion of GRIP PDZ6 (GRIP PDZ6) | interaction with GST fusion of GRIP PDZ7 (GRIP PDZ7)
DHQpYpYND | did not decrease binding | – | –
GNIYYKV [fluorescent B ephrin C-terminal peptide] | – | not detected | not detected

Reference: patent US20020147306A1, “Peptides that modulate the interaction of B class ephrins and PDZ domains” (priority 1998, published 2002)
